The text below walks through data of article PMC9358775 (Nature structural & molecular biology, 2022).

Assay [1] deals with F-actin (skeletal muscle actin, polymerised) ( (rabbit or chicken skeletal …, UniProt P68135 1-377)). As to the kind of experiment: fluorescence polarisation.
The target in assay [2] is T1, actin-binding domain 1 of human plastin 2 (human, UniProt P13796 120-375).
T1 sequence (looked up): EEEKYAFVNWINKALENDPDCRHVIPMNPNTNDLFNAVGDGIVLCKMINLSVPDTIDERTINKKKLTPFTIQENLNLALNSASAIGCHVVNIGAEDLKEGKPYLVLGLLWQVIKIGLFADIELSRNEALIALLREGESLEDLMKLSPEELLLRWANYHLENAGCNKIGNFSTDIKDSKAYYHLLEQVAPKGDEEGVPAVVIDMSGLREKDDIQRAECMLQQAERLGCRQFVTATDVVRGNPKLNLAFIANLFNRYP
As to the kind of experiment: fluorescence polarisation.

B1: actin-binding domain 2 of human plastin 2, unlabeled (domain or fragment)
chain: TREERTFRNWMNSLGVNPRVNHLYSDLSDALVIFQLYEKIKVPVDWNRVNKPPYPKLGGNMKKLENCNYAVELGKNQAKFSLVGIGGQDLNEGNRTLTLALIWQLMRRYTLNILEEIGGGQKVNDDIIVNWVNETLREAKKSSSISSFKDPKISTSLPVLDLIDAIQPGSINYDLLKTENLNDDEKLNNAKYAISMARKIGARVYALPEDLVEVNPKMVMTVFACLMGKGMKRV
The molecule B1 returned a Kd in assay [1] of about 4 nM.

B2: fluorescein-maleimide-labeled actin-binding domain 2 of human plastin 2 (domain or fragment, UniProt P13796 394-627, looked up)
chain: B1 chain
modifications: labeled with fluorescein-5-maleimide (FM); labeled residue not stated
On to B2, for which, in assay [2], the Kd turned out to be 11.4 nM.
